Experimental data: patent publication US20220331423A1 (WISTAR INSTITUTE OF ANATOMY AND BIOLOGY, published 2022)

Molecular target: T1, HSV-1 glycoprotein D (gD), non-fused, expressed from AdC68gD (HSV-1, UniProt Q05059 26-394)
T1 construct: Complete gD open reading frame (from pRE4) expressed in AdC68gD-infected cells; Tested as detergent cell extract (ELISA) or on and within infected cells; also called native gD; non-fused gD
Experiment: confocal microscopy of AdC68gD-infected B78-H1/3E5 (human HVEM-EGFP) cells stained with MAb to gD

T1 sequence (Q05059 26-394): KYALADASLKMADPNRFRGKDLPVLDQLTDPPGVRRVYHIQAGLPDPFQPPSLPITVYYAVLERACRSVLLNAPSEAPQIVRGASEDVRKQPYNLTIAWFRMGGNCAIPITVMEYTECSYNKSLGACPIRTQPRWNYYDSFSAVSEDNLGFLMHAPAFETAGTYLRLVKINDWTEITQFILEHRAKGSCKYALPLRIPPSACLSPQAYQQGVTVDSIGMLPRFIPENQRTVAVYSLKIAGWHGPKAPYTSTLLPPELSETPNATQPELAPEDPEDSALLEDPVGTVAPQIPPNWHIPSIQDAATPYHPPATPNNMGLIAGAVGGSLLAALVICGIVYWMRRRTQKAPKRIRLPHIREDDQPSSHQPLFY

B1: human HVEM fused to Enhanced Green Fluorescence Protein, expressed on B78H1/3E5 cells (receptor)
chain: LPSCKEDEYPVGSECCPKCSPGYRVKEACGELTGTVCEPCPPGTYIAHLNGLSKCLQCQMCDPAMGLRASRNCSRTENAVCGCSPGHFCIVQDGDHCAACRAYATSSPGQRVQKGGTESQDTLCQNCPPGTFSPNGTLEECQHQTKCSWLVTKAGAGTSSSHWVWWFLSGSLVIVIVCSTVGLIICVKRRKPRGDVVKVIVSVQRKRQEAEGEATVIEALQAPPDVTTVAVEETIPSFTGRSPNH
notes: whole, on cells; Mouse melanoma cells B78H1/3E5; also called HVEM-EGFP; HVEM on B78-H1/3E5 cells; not shown: Enhanced Green Fluorescence Protein (EGFP)
**Q.** Does B1 bind?
**A.** binds
